We go through 3 molecules from patent US7413870B2, “SAK: modulation of cellular proliferation for treatment of cancer” (Rigel Pharmaceuticals, Incorporated, priority 2001, dated 2008).

Positions count from the first letter of the chain named. Numbers in names are those of the source. Where two headings read alike, the source gives them in different places.

Test [1] concerns normal cells. Description: antiproliferative effect of SAK wild type/mutants in normal cells (GFP positivity, cell tracker). It is filed as cell-based.
In test [2] the test system is H1299 cells. Nature of the test: antiproliferative effect of SAK mutant in H1299 cells. It is filed as cell-based.
For test [3], the system named is CHO cells. The settings on record: overexpression in CHO cells; cited from earlier work.

B1: SAK wild type: wild type human SAK serine/threonine kinase (SEQ ID NO:2), overexpressed in cells (protein, UniProt O00444 1-970, looked up)
Serine/threonine-protein …: MATCIGEKIEDFKVGNLLGKGSFAGVYRAESIHTGLEVAIKMIDKKAMYKAGMVQRVQNEVKIHCQLKHPSILELYNYFEDSNYVYLVLEMCHNGEMNRYLKNRVKPFSENEARHFMHQIITGMLYLHSHGILHRDLTLSNLLLTRNMNIKIADFGLATQLKMPHEKHYTLCGTPNYISPEIATRSAHGLESDVWSLGCMFYTLLIGRPPFDTDTVKNTLNKVVLADYEMPSFLSIEAKDLIHQLLRRNPADRLSLSSVLDHPFMSRNSSTKSKDLGTVEDSIDSGHATISTAITASSSTSISGSLFDKRRLLIGQPLPNKMTVFPKNKSSTDFSSSGDGNSFYTQWGNQETSNSGRGRVIQDAEERPHSRYLRRAYSSDRSGTSNSQSQAKTYTMERCHSAEMLSVSKRSGGGENEERYSPTDNNANIFNFFKEKTSSSSGSFERPDNNQALSNHLCPGKTPFPFADPTPQTETVQQWFGNLQINAHLRKTTEYDSISPNRDFQGHPDLQKDTSKNAWTDTKVKKNSDASDNAHSVKQQNTMKYMTALHSKPEIIQQECVFGSDPLSEQSKTRGMEPPWGYQNRTLRSITSPLVAHRLKPIRQKTKKAVVSILDSEEVCVELVKEYASQEYVKEVLQISSDGNTITIYYPNGGRGFPLADRPPSPTDNISRYSFDNLPEKYWRKYQYASRFVQLVRSKSPKITYFTRYAKCILMENSPGADFEVWFYDGVKIHKTEDFIQVIEKTGKSYTLKSESEVNSLKEEIKMYMDHANEGHRICLALESIISEEERKTRSAPFFPIIIGRKPGSTSSPKALSPPPSVDSNYPTRERASFNRMVMHSAASPTQAPILNPSMVTNEGLGLTTTASGTDISSNSLKDCLPKSAQLLKSVFVKNVGWATQLTSGAVWVQFNDGSQLVVQAGVSSISYTSPNGQTTRYGENEKLPDYIKQKLQCLSSILLMFSNPTPNFH
In the case of B1, the antiproliferative activity result in test [1] was “do not have significant antiproliferative activity”; in test [1] (listed as wild type SAK), “neither wild type nor mutant SAK is antiproliferative”. For the same molecule, the antiproliferative effect entry in test [1] (GFP positivity studies) is given as “no antiproliferative effect”.

B2: SAK K41M mutant: mutant SAK (K41M) serine/threonine kinase, overexpressed in cells in dominant negative studies (protein, UniProt O00444 1-970, looked up, variant K41M)
Serine/threonine-protein …: B1 Serine/threonine-protein … with K41M
With B2, the antiproliferative activity entry in test [1] is given as “does not have strong antiproliferative effects”. The antiproliferative effect result in test [2] is on record as “weak antiproliferative effect”.

B3: wild type mouse SAK: wild type mouse SAK overexpressed in CHO cells, from cited U.S. patents (protein, UniProt Q64702 1-925, looked up)
Serine/threonine-protein …: MAACIGERIEDFKVGNLLGKGSFAGVYRAESIHTGLEVAIKMIDKKAMYKAGMVQRVQNEVKIHCQLKHPSVLELYNYFEDNNYVYLVLEMCHNGEMNRYLKNRMKPFSEREARHFMHQIITGMLYLHSHGILHRDLTLSNILLTRNMNIKIADFGLATQLNMPHEKHYTLCGTPNYISPEIATRSAHGLESDIWSLGCMFYTLLIGRPPFDTDTVKNTLNKVVLADYEMPAFLSREAQDLIHQLLRRNPADRLSLSSVLDHPFMSRNPSPKSKDVGTVEDSMDSGHATLSTTITASSGTSLSGSLLDRRLLVGQPLPNKITVFQKNKNSSDFSSGDGSNFCTQWGNPEQEANSRGRGRVIEDAEERPHSRYLRRAHSSDRASPSNQSRAKTYSVERCHSVEMLSKPRRSLDENQHSSNHHCLGKTPFPFADQTPQMEMVQQWFGNLQMNAHLGETNEHHTVSPNRDFQDYPDLQDTLRNAWTDTRASKNADTSANVHAVKQLSAMKYMSAHHHKPEVMPQEPGLHPHSEQSKNRSMESTLGYQKPTLRSITSPLIAHRLKPIRQKTKKAVVSILDSEEVCVELLRECASEGYVKEVLQISSDGTMITVYYPNDGRGFPLADRPPLPTDNISRYSFDNLPEKYWRKYQYASRFIQLVRSKTPKITYFTRYAKCILMENSPGADFEVWFYDGAKIHKTENLIHIIEKTGISYNLKNENEVTSLKEEVKVYMDHANEGHRICLSLESVISEEEKRSRGSSFFPIIVGRKPGNTSSPKALSAPPVDPSCCKGEQASASRLSVNSAAFPTQSPGLSPSTVTVEGLGHTATATGTGVSSSLPKSAQLLKSVFVKNVGWATQLTSGAVWVQFNDGSQLVVQAGVSSISYTSPDGQTTRYGENEKLPEYIKQKLQCLSSILLMFSNPTPNFQ
On to B3, for which, in test [3], the antiproliferative effect entry is “antiproliferative”.
